Substrate: O=C=O
Experiment: protein film electrochemistry, KM for CO2 reduction at -560 mV
Type: biochemical, Carboxydothermus hydrogenoformans
Conditions: [Ni-4Fe-4S] C-cluster active site C-cluster

B1: CODH IICh (Carboxydothermus hydrogenoformans Z-2901) (protein)
chain: AKQNLKSTDRAVQQMLDKAKREGIQTVWDRYEAMKPQCGFGETGLCCRHCLQGPCRINPFGDEPKVGICGATAEVIVARGLDRSIAAGAAGHSGHAKHLAHTLKKAVQGKAASYMIKDRTKLHSIAKRLGIPTEGQKDEDIALEVAKAALADFHEKDTPVLWVTTVLPPSRVKVLSAHGLIPAGIDHEIAEIMHRTSMGCDADAQNLLLGGLRCSLADLAGCYMGTDLADILFGTPAPVVTESNLGVLKADAVNVAVHGHNPVLSDIIVSVSKEMENEARAAGATGINVVGICCTGNEVLMRHGIPACTHSVSQEMAMITGALDAMILDYQCIQPSVATIAECTGTTVITTMEMSKITGATHVNFAEEAAVENAKQILRLAIDTFKRRKGKPVEIPNIKTKVVAGFSTEAIINALSKLNANDPLKPLIDNVVNGNIRGVCLFAGCNNVKVPQDQNFTTIARKLLKQNVLVVATGCGAGALMRHGFMDPANVDELCGDGLKAVLTAIGEANGLGGPLPPVLHMGSCVDNSRAVALVAALANRLGVDLDRLPVVASAAEAMHEKAVAIGTWAVTIGLPTHIGVLPPITGSLPVTQILTSSVKDITGGYFIVELDPETAADKLLAAINERRAGLGLPW
B1 was tested, and the Km was 8.0 ± 1.6 mM.
